# Experimental data from a protein production outcome set (Wang et al. 2014).
# Experiment: label from the status in PepcDB records
row,Sequence,protein production
1,MKKEKLFSLLRYIDNGSLECITSLFLITLSLTMPAIGLGNFGIQVIALSMIPLINVRFPVAALPLALVATVWLNAWADHLLLTGFIVYLAVEYATSRGRFALALILGVEWILIAYGVALERPLEAKDSPSLITEILLILVAAGTGAGRWKILSERKQRAITQQEIIKKIRTDIAHYLHDSMARSLAIMIVQSKLTELEPDPKKIQEKLNSIAKIGQEAVADLHQLVRHLVVEESAEKATAFGAWAAVSIHDTVNSAIQLLVDAGHVVSFDSRKKNYKLDHIAETAFALAFNEAVCNAIKHSPPKANVTIRITEKAQSLQILVMNPIGDWHANGESAIPGVGIGVESLTRRIRNIKGQVCVTSLQGYWKVVISLPLKCEDS,failed
2,MSIKIGLLGFGTVASGIPFLLKENGEKVFAASRDQLEIAKVLVKDDEEKDRLIAAGNDYNFVTNVDEILNDEEIQIVVELMGRIEPARTFITKALEAGKNVVSANKDLIATHGKELIALAQDKGVAFYYEAAVAGGIPILRTLANSLTSDKVTRILGVLNGTSNFMMTKMVDEGWSYEDALKTAQELGYAESDPTNDVEGYDAAYKAVILSQFGFGATIDFDDVSHKGITNISTDDVAVAQELGYVIKLVGDVREVESGISAEVSPTFLPKNHPLASVNDVMNAVFVESIGIGESMYYGPGAGQKPTATSVLADIIRIARRLSDGNVGKPFNEFRRDLPLANPADVKSNYYFALDTPDEKGKILHLSEIFNSEDISFEQVLQQKANGTTARIVVITHAMSKTQLKAVTEKLEAAEDFTVVNTLKVLSNLEHHHHHH,not failed
3,MSRTTASTCMGERRQSSLKRLAIFRPVQRLPARELLPLDGDRWLVAAQRREPERGPNGLGNGQRRPVQFRREVPGEHDVCIHIHRAVGFEDVIHDEPHPVGGLPFDDIRCGHIYALLGQSIGYVRVVSDADLDDGIDRRQSVDKRAGGVGHVVQFMRCGRICVPMHVDIVPVGEVSAQVKREASDGLRSVYDCEVSMHEPQSIPAGAYDGDRDQYRAEEFIDLARRVGSGGKNIAITPKDLFYRRRNYVFGLAYLGGSGSVISTYRLQTSSDGGFSNRSAGEIFSQRVRKEVVHEVGHTLGLEHCDNKRCVMNFSPTVRQVDVKEVSLCGSCQRNVL,failed
4,MSRIASHTQGLFADLREWIDLRVDLAILEMEERLDAFKNDLALGLTVAVFAFFAAFFSLTTVALGVGWLLGHPFWGFLAVSVALILIIVTLRVTKPALMPPSNLFESLRGERAASDEGPSSRPASAAVDEADGAEAQASAPDVKA,failed
5,MKPDIYENNREGILCVYKNEKWLVCIKNWKPDNDIEGIAHLEIHHSTDEQFILSAGKAILITAEKENDKFNIELTLMEKGKVYNVPAECWFYSITQKDTKMMYVQDSNCSMDNSDFCDLSKEEIEYIQTNARKLFEK,not failed
6,MAFRKPDEIAEAAIEAGMKKIKLPLPSLLVLGFLGGAFIALGYLLDIRVIGDLPKEWGSLSSLIGAAVFPVGLILVVLAGAELITGNMMSVAMALFSRKISVKELAINWGIVTIMNLIGALFVAYFFGHLVGLTETGPYLEKTIAVAQGKLDMSFGKVLISAIGCNWLVCLAVWLSFGAQDAAGKILGIWFPIMAFVAIGFQHVVANMFVIPAAIFAGSFTWGQFIGNIIPAFIGNVIGGAVFVGLIYFIAYHKKDRSRKEMKQVS,failed
7,MLIYEGHIDKLIRRGQEKGLDIFNLIRAAVINPVEHYGLNVGLLREGDPADFITVDDLKSFNVLSTFIDGECVYENGKVLFPMKLEHHHHHH,not failed
8,MLYNSEVITYERAPKSEKDTKVENIKKLFILKVLIYAVSSFAISRVVMINSMVPFGIAFLACVLIYKKNDKASFLAAVGSLVGYISISGEVKDSVMYEIGVIIITLLMVVMKEKEDIKKLVTSAIFLLIEFIMFKILVEKLTVQSALIFTLIEIACVCSVYYIIRYGIICLDNIRTKHLFTNEEIISMSVLVALVISGTRNFDIYNVSIRNVLAMVFVIAISYIEGSSAGAAGGIAIGAIIGMNSSDVMIYIGVFGFLGFIAGVFKDFGKWITAGVYLIIFLIIIIYCKNHVDFSLMEAAITCIIFAGIPNKLYKKMECEFNWDRKQSDITNRYIEKMKDIFVKKLENFSEVLFTMSTTLNNLADNDKLTMKNKSCRLVENLADRVCGKCNMNSICWKREIYYTYAAFEELIQNFQEGINKIPDEIERKCVRRKELIKHTDMIINDYIMNEMWRMQVCSGREFMSAQVKNIGTSVENIIDEFSNELKFNVDVEEKIIRLLNKMGIPYKDIMCVNDKRNRNLVKLTMEACGGRQICVKHVLPVINEAVGTLMCVGDDGCSICPETNLCSVTFEETPKYYISSQIVRACKDGEEVNGDSYSFGKGKDGNYNIIISDGMGHGVQAEKESRAVIDLIEKFNESSLNRTMAINTVNSIMTLKFEEDEKFSTVDLCSVDLYSGDAEFIKVGGVTSFIKKKDKIEVINAKTLPIGVLDTVDMEVNHKKVENGDMIVMISDGVVNYDDENAGKVNWIIDFLKNSSANKPKELGEAMLKKAIELSGGKAKDDITIIISKVYSLY,failed
9,MVAGFTVHSGPHHVPHRDMTHHSRPPGHAPRVTILMPVYNGEKYLAAAMESILDQTFRDFILLIIDDGSSDSSLAIARSFGDPRVQVERNPKNLGLVKTLNRGLDLVQTEFVARMDCDDIALPDRLEKQIAFLDENPDIGMCGTAYELFHESLRQTIRPPCRHEEIVYGLLDDNVFLHSSVIVRMEVLNRHGLRYREDYRLAEDYELWARLARYTHIGNLPQVLVRYRSHPENVSNTNKGEQIATRDRVRLEHLESFGLAPAADQKTLHIDLFSLAFQGSPDQLADARRWLEALARAVSTRCGLPLGRLHRDFALLWYSACGRSAHHGLTVLFSYLKSAMAWKGPKSYILKLLFRCLMRDPIPAVTKLEHHHHHH,not failed
10,GSLQDNSSYPDEPWRITEEQREYYVNQFRSLQPDPSSFISGSVAKNFFTKSKLSIPELSYIWELSDADCDGALTLPEFCAAFHLIVARKNGYPLPEGLPPTLQPEFIVTD,not failed
11,MADRPHPYDRAPGGSSGSHDRTGVFRRNPDGGLPDRIDSLYRPEPAARSASDAAATRRLSRTSGTPPRRPTPRSRGRDSGGWERRERERRARRRKKAAVLVLVLLLLLPTVGYLWANSRLNRVAALVPYEGRPDDQPGTTYLIVGSDSREGLSDEDMEALRTGKAEGKRTDTIMVLYVPTEGRPAIISVPRDSYVEIPGIGANKINAAYAEALGGGPATLVRTFEQASGVRIDHYVEIGFAGFVDIVDAVGGVELCPEEAMEDPKAGLDIEAGCQVMDGPTALGYVRTRATPRADLDRIQRQREFFSALIQQATAPSTLFNPFRSIPLVLSGTSTFSVDEGDSLMDLAWLALAMRDSPATTAVPVGSTPTLDVGSVVLWDEARAEEMFAAMREGRPIPESAMQD,failed
12,MKQKDLKRAYNNVLAQAISGSKQYLFAGNLFGDIFVLRIKELDKGSEEPPGKLKIFPQGSDVDINYLAFHRDFLIVGAVGLIYGLEWNEEEESLATKRSWEVKIPMQVDAVEVPDVNSMWLDSENSILFAGCGDGVIYQVSLEDGRIQREYRGHTDYVHSVVGNANGQIFSGAEDGTVRVWSTKQQQHTSMLEPYKNPNLLRPDWGKWIGAVAVNEDWLLCGGGPKASIFHLRSMESTCVFSFPGRVHLCDFVDDCVLIGGEHNHVQSYTLNGVLQANIPVEHTACYSAVWQTSPIKFISIAGFSNKLHILKDFRFLDSKIEMYGNVEGEENDPEEEDELIEKPLTVEAA,failed
13,MRRFLAGLWLLGLALGQGLVLPFEGPKGYGLAQAFAQGLKAPPPTLLALLLPDLPWRGSYELAGGLYTKAGARLARAATGADWVLLGREEEGGLRLILAREGGSEERLFKTPELAWLWLQGKGLAPRLSPLPTPGLPEERLRALAQGEAPDPLHRSALDLKEGRGSGLLEGLLPERLLLLWQGKLPRAYEAFRLLAEGKREEALALAEAMEEGDVLERTAAHLLFRALEDERWKASARRLAEAFPELSLAWEEVSFAAFQEGKGEEAKEALLKALALRPDYWLYWTNLGWAYYLTGDLPRAIQASERAVALSPNATAYYNLGLFKAIYGDFLGAKAAYDRALRLDQGEDYPEALKDLEEREEPLALFFRAYLAERTGLEAEPLYRAFLEAYPRHPAAFAARRALATLKAGGLSLEVERLTLVPGGPDARPFRAGEAIFPEVRLEGRPYLRQASLFTALYREGRKVAEEEKPVGFPPLTVALLEVAPPVVPEAPGRYRLEVRYAEARAVLDLEVGAPSLARRLFALGLEVRDLSGRPLLTPKEALGEDGERLLLERAREALMEAAPLATTERLTQPLEKGPVAGRSVQEVLRDPDPEILRAFFQAVLENPERLAETDVVNAFVNWLLEP,failed
